Literature values, collected in publication doi:10.1101/2024.07.26.605324.

Experiments:
His19 = His19 (UniProt position 19, ILSALHFMAWT); assay: NMR; details: 243–263 K; membrane-bound tetramer, wild type with both His19 and His27 present
His27 = His27 (UniProt position 27, AWTIGHLNQIK); assay: NMR; details: 243–263 K; membrane-bound tetramer, wild type with both His19 and His27 present

Influenza B virus matrix protein 2 (BM2) proton channel (Influenza B virus)
pKa (His19): 4.2 | pKa (His27): 7.9
